Target: T1, human epidermal growth factor receptor (EGFR) (Homo sapiens (A431 and FaDu cells), UniProt P00533)
T1 construct: human EGFR, full-length receptor presented by living A431 (epidermoid carcinoma) and FaDu (squamous carcinoma) cells; also called human EGFR; source: endogenous, on living A431 and FaDu cells
Assay: radioligand binding; ^99mTc-labelled sdAb on A431 and FaDu cells, 1 h on ice, with or without pre-blocking by a 40-fold excess of unlabeled Cetuximab; read-out % ID/mg protein
Conditions: one partner purified

- binding result: binds
B1: EGFR-specific single-domain antibody EG2 (VHH)
VHH: QVKLEESGGGLVQAGDSLRVSCAASGRDFSDYVMGWFRQAPGKEREFVAAISRNGLTTRYADSVKGRFTISRDNDKNMVYLQMNSLKPEDTAVYYCAVNSAGTYVSPRSREYDYWGQGTQVTVSS
notes: an initial methionine was added by the NcoI site; Camelid-derived sdAb; Intradomain disulfide bridge formed in about 98% of the purified protein; also called sdAb EG2; ^99mTc-EG2; source: E. coli SHuffle T7 Express, cytoplasm (pET-28b:EG2), purified (Ni-IDA IMAC); not shown: His6, C-terminal, kept

Source: article PMC3818982 (Microbial Cell Factories, 2013)
